Reference: the RNAGym collection of RNA variant scans (doi:10.1073/pnas.2313332121)

B1: TPR t1 (parent)
chain: GACCAAUCUGCCCUCAGAGCUCGAGAACAUCUUCGGAUGCAGAGGAGGCAGGCUUCGGUGGCGCGAUAGCGCCAACGUCCUCAACCUCCAAUGCAUCCCACCACAUGAUGAUGCCUGAAGAGCCUUGGUUUUUUG

Variants of: B1
Experiment: polymerase ribozyme fitness, log enrichment relative to wild type (log ratio); higher = more active; in vitro selection for triplet polymerase activity
In short: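 Fitness is a logarithmic measure of how a genotype enriched relative to the wild type, with replicate averages weighted by inverse variance. The logarithm uses base 2, and enrichment came from Illumina sequencing of input and output libraries. Those libraries were PCR-built, transcribed mutants of each subunit of a heterodimeric triplet polymerase ribozyme, passed through one triplicate in vitro selection round that included frozen incubation at −7 °C, gel excision of extended constructs and streptavidin-bead capture. Genotypes were kept only if they had ≥10 input reads and ≥1 read per output.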

Variant	polymerase ribozyme fitness (log ratio)
GACCAAUCUGCCCUCAGAGCUCGAGAACAUCUUCGGAUGCAGAGGAGACAGGCUUCGGUGGCGCGAUACCGCCAACGUUCUCAACCUCCAAGGCAUCCCACCACAUGAUGAUGCCCGAACAGCCUUGGUUUUUUG [G48A G69C C79U U92G U116C G120C]	-7.13
GACCAAUCUGCCCUCAGAGCUCGAGAACAUCUUCGGAUGCAGAGGAGGCAGGCUUCGGUGGCGCGAUAGCGCCAACGUCCUCAACCUCCAAUGCAUCCCACCACAUGAUGAUGCCUGAAGAGCCUUGGUUUUUUC [G135C]	0.446
GACCAAUCUGCCCUCAGAGCUCGAGAACAUCUUCGGAUGCAGAGGAGACAGGCUUCGGUGGCGCGAUAGCACCAACGUCCUCAACCUCCAAUGCAUCCCACCACAUGAUGAUGCCUGAAGAGCCUUGGUUUUUUG [G48A G71A]	-1.09
GACCAAUCUGCCCUUAGAGCUCGAGAACAUCUUCGGAUGCAGAGGAGGCAGGCUUCGGUGGCGCGAUAGUGCCAACGUCCUCAACCUCCAAUGCAUCCCACCACAUGAUGAUGCCUGAAGAGCCUUGGUUUUUUG [C15U C70U]	-1.7
GACCAAUCUGGCCUCAGAGCUCGAGAACAUCUUCGAAUGCAGAGGAGGCAGGCUUCGGUGGCCCGAUAGCGCCAACGUCCUCAACCUCCAAUGCAUCCCACCACAUGAUGAUGCCUGAAGAGCCUUGGUUUUUUG [C11G G36A G63C]	-1.16
GACCAAUCUGCCCUCAGAGCUCGAGAACAUCUUCGGAUGCAGAGUAGGUAGGCUUCGGUGGCGCGAUAGCGCCAACGUCCUCAACCUCCAAUGCAUCCCACCACAUGAUGAUGCGUGAAGAGCCUUGGUUUUUUG [G45U C49U C115G]	-3.11
GACCAACCUGCCCUCAGAGCUCGAGAACAUCUUCGGAUGCAGAGGAGGCAGGCUUCGGUAGCGCGAUAGCGCCAACGUCCUCAACCUCGAAUGCAUCCCACCACAUGAUGAUGCCUGAAGAGCCUUGGUGUUUUG [U7C G60A C89G U130G]	-1.83
GACCAAUCUGCCCUUAGAGCUCGAGAACAUCUUCGGAUGCAGAGGAGGCAGGCUUCGGUGGCGCGAUAGCGCCAACGUCCUCAACCUCCAAUGCAUCCCACCACAUGAUGAUGCCUUAAAAGCCUUGGUUUUUUG [C15U G117U G120A]	-1.56
GACCAAUCUGCCCUCAGAGCUCGAGAACAUCUUCGGAUGCAGAGGAGGCAGGCUUUGGUGGCCCGAUAGCGCCAACGUCCUCAACCUCCAAUGUAUCCCACCACAUGAUGAUGCCUGAAGAGCCUUGGUUUUUUG [C56U G63C C94U]	-5.48
GACCAAUCUGCCCUCAGAGCUCGAGAACAUCUUCGGAUGCAGAGGAGGCUGGCUUCGGUGGCGCGAUAGCGCCAACGUCCUCAACCUCCAAUGCAUCCCACCACAUGAUGAUGCUUGAAGAGCCUUGGUUUUUUG [A50U C115U]	-2.37
GAUCAAUCUGCCUUUAGAGCUCGAGAACAUCUUCGGAUGCAGAGGAGUCAGGCUUCGGUGGCGCGAUAGCGCCAACGUCCUCAACCUCCAAUGCAUCCCACCACAUGAUGAUACCUGAAGAGCCUUGGUUUUUUG [C3U C13U C15U G48U G113A]	-2.97
GACCAAUCUGCCCUCACAGCUCGAGAAAAUCUUCGGAUGCAGAGGAGGCAGGCUUCGGUGGCACGAUAGCGCCAACGUCCUCAACCUCCAAUGCAUCCCACCACAUGAUGAUGCCUGAACAGGCUUGGUUUUUUG [G17C C28A G63A G120C C123G]	-6.85
GACCAAUCUGCCCUCAGAGCUCGAGAACAUCUUCGGAUGCAGAGGAGGCAGGCUUCGGUGGCGCGAUAGAGCCAACGUCCUCAACCUCCAAUGCAUCCCACCACAUGAUGAUGCCUGAAGAGCCUCGGUUUUUUG [C70A U126C]	-2.02
GACCAAUCUGCCCUCAGAGCUCGAGAACAUCUUCGGAUGCAGAGGAGGCAGGCUUCGGUGGCGCGAUAGUGCCAACGUCCUCAACCUCCAAUGCAUCCCACCACAUGACGAUGCCUGAAGAGCCUUGGUUUUUUG [C70U U109C]	-3.68
GACCAAUCUGCCCUCAGAGCUCGAGUACAUCUUCGGAUGCAGAGGAGGCAGGCUUCGGUGGCGUGAUAGCGCCAACGUCCUAAACCUCCAAUACAUCCCACCACAUGAUGAUGCCUGAAGAGCCUUGGUUUUUUG [A26U C64U C82A G93A]	-4.48
GACCAAUUUGCCCUCAGAGCUCGAGAACAUCUUCGUAUGCAGAGGAGGCAGGCUUCGGUCGCGCGAUAGCGCCAACGUCCUCAACCUCCAAUGCAUCCCACCACAUGAUGAUGCCUGAAGAGCCUUGGUUUUUUG [C8U G36U G60C]	-1.66
GACCAAUCUGCCCUCAGAGCUCGAGAACAUCUUCUGAUGCAGAGGAGGCAGGCUUCGGUGGCGCGAUAGCGCCAACGUCCUCAACCUCCAAUGCAUCCCACCACAUGAUGAUGCCUGAAGAGCCUUGGUUUUUUG [G35U]	-4.66
GACCAAUCUGCCGUCAGAGCUCGAGAACAUCUUCGGAUGCAGAAGAGGCAGGCUUCGGUGGCGCGAUAGCGCCAACGUCCUCAACCUCCAAUGCAUCCCACCACAUGAUGAUGCCUGAAGAGCCUUGGUUUUUUG [C13G G44A]	-2.85
GACCAAUCUGCCCUCAGAGCCCGAGAACAUCUUCGGAUGCAGAGGAGGCAGGCUUCGGUGGCACGAUAGCGCCAACGUCCUAAACCUCCAAUGCAUCCCACCACAUGAUGAUGCCUGAAGAGCGUUGGUUUUGUG [U21C G63A C82A C124G U133G]	-0.991
GACCAAUCUGCCCUCAGAGCUCGAGAACAUCUUCGGAUGCAGAUGAGGCAGGCUUCGGUGGCGCGAUAGCGCCAACGUCCUCAACCUCCAACGCAUCCCACCACAUGAUGAUGCCUGAAGAGCCUUGGUUUUUUG [G44U U92C]	-1.82
GACCAAUCUGCCCUCAGAGCUCGAGAACAUCUUCGGAUGCAGAGGAGGUAGGCUUCGGUGGCGCGAUAGCGCCAACUUCCUCAACCUCCAAUGCAUCCCACCACAUGAUGAUGCCUGAAGAGCCUUGGUUUUUUG [C49U G77U]	0.0294
